According to US20220306744A1 (CRESCENDO BIOLOGICS, published 2022):
Changes are numbered by the printed parent chain. Each block holds one binder with its values, some of them ahead of it.

Experiments:
[1] = target: T1, human PD-1 expressed on cells (CHO TREX human PD1 cell line, full-length human PD-1 sequence) (human, UniProt Q15116 21-288); experiment: FMAT: inhibition of human Fc tagged human PD-L1 (400 pM) binding to CHO human PD-1 cells
T1 construct: Also used for human PD-1 on Jurkat reporter cells, on PathHunter cells and on PHA-stimulated human CD4+ T cells; also called CHO human PD1 cells; CHO human PD-1 cells
T1 sequence (Q15116 21-288): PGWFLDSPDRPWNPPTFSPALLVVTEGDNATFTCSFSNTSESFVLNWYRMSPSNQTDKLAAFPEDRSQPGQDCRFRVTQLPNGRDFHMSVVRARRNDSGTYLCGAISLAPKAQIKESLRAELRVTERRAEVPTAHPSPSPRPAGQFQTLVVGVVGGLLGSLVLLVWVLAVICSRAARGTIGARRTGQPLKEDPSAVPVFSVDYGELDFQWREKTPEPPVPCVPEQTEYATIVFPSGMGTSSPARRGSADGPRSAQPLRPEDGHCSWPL
Experimental: (§1) Purified VH were serially diluted in FMAT assay buffer and tested for binding to CHO human PD-1 cells as described above and for inhibition of human PD-L1/PD-L2 binding to CHO human PD-1 cells. All reagents and serially diluted VH were prepared in FMAT assay buffer. VH, buffer (total binding controls) or excess competitor (non-specific binding control) were incubated with 400 pM human Fc tagged human PD-L1 or 100 pM PDL-2, 4 nM anti human Fc-Alexa Fluor-488 and 2000 per well CHO human PD-1 DRAQ5 stained cells in a 384 well black clear-bottomed assay plates. Plates were incubated for 2 hours at room temperature then fluorescence measured in the FL2 (502 nm-537 nm) and FL5 (677-800 nm) channels on the Mirrorball plate reader (TTP) following excitation at 488 nm and 640 nm. Data was expressed as a % of the total binding control (i.e. % control) after subtraction of the background signal determined from the non-specific binding control wells. The results are shown in FIG. 5 and in Tables 8 and 9 below.

[2] = target: T1, human PD-1 expressed on cells (CHO TREX …); experiment: FMAT: inhibition of PDL-2 (100 pM) binding to CHO human PD-1 cells
Experimental: as §1

[3] = target: T1, human PD-1 expressed on cells (CHO TREX …); experiment: FMAT: inhibition of human Fc tagged human PD-L1 (400 pM) binding to CHO human PD-1 cells; remark: listed apart in the source
Experimental: as §1

[4] = target: T2, Strep tagged recombinant human PD-1 (human, UniProt Q15116 25-167, limits assumed); experiment: SPR Biacore T200, single cycle kinetics, Strep tagged human PD-1 amine coupled, 1:1 model
T2 construct: whole entry named; also called Strep tagged human PD-1; not shown: Strep tag
T2 sequence (Q15116 25-167 limits assumed): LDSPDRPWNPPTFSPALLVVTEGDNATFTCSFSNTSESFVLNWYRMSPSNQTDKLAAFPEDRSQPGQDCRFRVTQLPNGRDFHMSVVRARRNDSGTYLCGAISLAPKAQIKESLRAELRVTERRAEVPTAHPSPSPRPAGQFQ
Experimental: Single cycle kinetics assays were used to study the interaction between human PD-1 with Humabody VHs on a Biacore T200 instrument (GE Healthcare). Strep tagged recombinant human PD-1 was amine coupled to one flow cell of a CM-5 chip to create a low density surface (14 RU) using standard Biacore reagents. For the reference flow cell, a blank immobilisation was carried out. A five point, three-fold dilution series of each Humabody VH was made with a top concentration of 25 nM. The binding kinetics were followed by flowing the Humabody VH over the chip surface in HBS EP+ buffer at a flow rate of 30 μl/min. The contact time for each of the association steps was 180 seconds and the dissociation step was 3300 seconds. The data was fitted to a 1:1 binding model after double reference subtraction using the Biacore T200 Evaluation software.

[5] = target: T3, recombinant human PD-1 Fc chimera (human, UniProt Q15116 25-167); experiment: SPR Biacore T200, single cycle kinetics, human PD-1-hu Fc amine coupled to CM5, 1:1 model
T3 construct: Bought protein (R&D 1086-PD in the HTRF assay); also called human PD-1-hu Fc; huPD-1Fc; not shown: human Fc
T3 sequence (Q15116 25-167 limits assumed, stated change not applied): as the sequence (Q15116 25-167 limits assumed) above
Experimental: Binding kinetics of certain humabodies binding to human PD-1-hu Fc were measured by surface plasmon resonance (SPR) technology using Biacore T200 instrument (GE Healthcare). Recombinant human PD-1-hu Fc was immobilized by standard amine coupling to CM5 sensors chip (GE Healthcare) using 0.1 mg/ml solution of antigen in 10 mM sodium acetate at pH 5.5. For the reference flow cell, a blank immobilisation was carried out. Single cycle kinetics assays were used to study the interaction, a five point, three-fold dilution series of each Humabody® VH was made with a top concentration of 30 nM. The binding kinetics were followed by flowing the Humabody® VH over the chip surface in HBS EP+ buffer at a flow rate of 30 μl/min. The contact time for each of the association steps was 180 seconds and the dissociation step was varied between 1200-3600 seconds. The data was fitted to a 1:1 binding model after double reference subtraction using the Biacore T200 Evaluation software.

[6] = target: T3, recombinant human PD-1 Fc chimera; experiment: SPR Biacore T200, single cycle kinetics, human Fc tagged PD-1 captured on Protein G, 1:1 model
Experimental: Single cycle kinetics assays were used to study the interaction between human Fc tagged human PD-1 with Humabody® VH on a Biacore T200 instrument (GE Healthcare). Protein G was amine coupled to two flow cells of a CM-5 chip. Human Fc tagged recombinant human PD-1 was captured onto one of the flow cells. The other was used as the reference flow cell. A five point, three-fold dilution series of each Humabody® VH was made with a top concentration within the range of 50 to 150 nM. The binding kinetics were followed by flowing the Humabody® VH over the chip surface in HBS EP+ buffer at a flow rate of 30 μl/min. The contact time for each of the association steps was 180 seconds and the dissociation step was 3600 seconds. The data was fitted to a 1:1 binding model after double reference subtraction using the Biacore T200 Evaluation software.

[7] = target: T1, human PD-1 expressed on cells (CHO TREX …); experiment: cell-based or functional assay
[8] = target: T4, mouse PD-1 protein (R&D Systems cat no. 1021-PD) (mouse, UniProt Q02242 25-167); experiment: HTRF binding assay, 2 nM mouse PD1
T4 construct: Bought protein
T4 sequence (looked up): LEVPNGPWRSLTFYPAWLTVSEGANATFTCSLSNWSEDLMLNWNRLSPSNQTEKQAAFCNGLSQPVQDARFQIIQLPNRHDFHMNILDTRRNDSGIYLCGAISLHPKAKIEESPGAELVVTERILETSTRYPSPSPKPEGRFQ
Experimental: (§2) Purified VH were tested for their ability to bind to human PD1 (R&D Systems cat no. 1086-PD), cynomolgus PD-1 (Acro Biosystems cat no. PD-1-C5254) and mouse PD1 (R&D Systems cat no. 1021-PD) in an HTRF Binding assay format. All reagents and serially diluted VH were prepared in assay buffer containing PBS, 0.1% BSA and 0.4M Potassium Fluoride. Samples or assay buffer (non-specific binding) were incubated with 2 nM human/cynomolgus or mouse PD1, 1 nM Anti human-Fc Cryptate PAb (Cisbio cat. no. 61HFCKLB) and 30 nM anti His-D2 (CisBio cat no 61HISDLA) in black 384-shallow well assay plates for a minimum of 3 hours at room temperature. Time-resolved fluorescent emission at 620 nm and 665 nm was measured following excitation at 337 nm on the BMG PHERAstar plate reader. The HTRF ratio were calculated ((665 nm emission/620 nm emission)*10000) and the data corrected for (non-specific binding) to give the specific binding signal.

[9] = target: T3, recombinant human PD-1 Fc chimera; experiment: HTRF binding assay, 2 nM recombinant PD1, anti His-D2 and anti human-Fc cryptate
Experimental: as §2

[10] = target: T5, cynomolgus PD-1 recombinant protein (Acro Biosystems cat no. PD-1-C5254) (cynomolgus); experiment: as above
T5 construct: Bought protein; also called cyno PD1
Experimental: as §2

[11] = target: T3, recombinant human PD-1 Fc chimera; experiment: BLI Octet, human PD-1-hu Fc amine coupled to biosensors, 1:1 model
Experimental: Binding kinetics for Humabody® 1.1a to human PD-1-hu Fc are shown below. These were measured in real-time bio-layer interferometer based biosensor Octet (ForteBio). Recombinant human PD-1-hu Fc was immobilized by standard amine coupling to amine reactive biosensors in 10 mM sodium acetate at pH 5.0. All the binding studies were performed in HBS-ET Octet kinetics buffer. Biosensors were always washed in Octet kinetics buffer in between different steps. A seven point, two-fold dilution series of each Humabody® VH was made with a top concentration of 30 nM. The contact time for each of the association steps was 300 seconds and the dissociation step was varied between 400-600 seconds. Kinetic association (kₐ) and dissociation (kd) rate constants were determined by processing and fitting the data to a 1:1 binding model using ForteBio Analysis software.

IC50 [1]: 23 nM
B1: 1.1b (VHH)
VHH: QVQLVESGGGLVKPGGSLRLSCAASGFTFSDYTMTWMRQAPGKGLEWVSYISTGGTIKYYTDSVKGRFTISRDNAKNSLYLQMNSLRADDTAVYYCAREAPLRLGESPHDAFDIWGQGTMVTVSS
notes: also called Humabody 1.1b

IC50 [2]: 2.3 nM
IC50 [1]: 4.2 nM
IC50 [3]: 1.8 nM
Kd [4]: 0.0782 nM
koff [4]: 3.17e-05 s⁻¹
kon [4]: 405000 M⁻¹ s⁻¹
Kd [5]: 0.000124 nM
koff [5]: 6.68e-08 s⁻¹
kon [5]: 537000 M⁻¹ s⁻¹
Kd [6]: 44.1 pM
koff [6]: 2.11e-05 s⁻¹
kon [6]: 479000 M⁻¹ s⁻¹
B2: 1.57b (VHH)
VHH: B1 VHH with Y32N, T33S, T53S, T56G, I57V, K58I, Y59F, T61A, W115S

EC50 (M), NFAT-Luciferase reporter gene assay [7]: 1.7e-09 M
binding result [8]: no binding
IC50 [2]: 1.2 nM
EC50 [9]: 1.2 nM
EC50 [10]: 2.1 nM
IC50 [1]: 1.3 nM
IC50 [3]: 0.9 nM
Kd [4]: 0.111 nM
koff [4]: 4.86e-05 s⁻¹
kon [4]: 437000 M⁻¹ s⁻¹
Kd [6]: 0.0594 pM
koff [6]: 4.59e-08 s⁻¹
kon [6]: 773000 M⁻¹ s⁻¹
B3: 1.57b-4GS-1.1a (other)
chain: QVQLVESGGGLVKPGGSLRLSCAASGFTFSDNSMTWMRQAPGKGLEWVSYISSGGGVIFYADSVKGRFTISRDNAKNSLYLQMNSLRADDTAVYYCAREAPLRLGESPHDAFDISGQGTMVTVSSGGGGSGGGGSGGGGSGGGGSEVQLLESGGGSVQPGRSLRLSCAASGFTFDDHAMHWVRQAPGKGLEWVSGISWNSGSMGYADSVKDRFTISRDNAKSSLYLQMNSLRAEDTALYYCVREKGPGLTGSTADYYGLDVWGQGTMVTVSS
notes: Biparatopic VH-linker-VH

EC50 (M), NFAT-Luciferase reporter gene assay [7]: 8.5e-09 M
IC50 [1]: 5.6 nM
Kd [5]: 0.035 nM
koff [5]: 1.1e-05 s⁻¹
kon [5]: 316000 M⁻¹ s⁻¹
B4: 1.1b-4GS-1.1a (other)
chain: B3 chain with N32Y, S33T, S53T, G56T, V57I, I58K, F59Y, A61T, S115W
notes: Biparatopic VH-linker-VH

koff [11]: 0.000901 s⁻¹
kon [11]: 459000 M⁻¹ s⁻¹
Kd [5]: 0.676 nM
koff [5]: 7.35e-05 s⁻¹
kon [5]: 109000 M⁻¹ s⁻¹
B5: 1.1a (VHH)
VHH: EVQLLESGGGSVQPGRSLRLSCAASGFTFDDHAMHWVRQAPGKGLEWVSGISWNSGSMGYADSVKDRFTISRDNAKSSLYLQMNSLRAEDTALYYCVREKGPGLTGSTADYYGLDVWGQGTMVTVSS
notes: also called Humabody 1.1a; VH single domain antibody 1.1a

EC50 (M), NFAT-Luciferase reporter gene assay [7]: 1.1e-08 M
binding result [8]: no binding
EC50 [9]: 0.5 nM
EC50 [10]: 0.92 nM
Kd [5]: 0.028 nM
koff [5]: 6.39e-06 s⁻¹
kon [5]: 228000 M⁻¹ s⁻¹
B6: 1.1b-6GS-1.1a (other)
chain: QVQLVESGGGLVKPGGSLRLSCAASGFTFSDYTMTWMRQAPGKGLEWVSYISTGGTIKYYTDSVKGRFTISRDNAKNSLYLQMNSLRADDTAVYYCAREAPLRLGESPHDAFDIWGQGTMVTVSSGGGGSGGGGSGGGGSGGGGSGGGGSGGGGSEVQLLESGGGSVQPGRSLRLSCAASGFTFDDHAMHWVRQAPGKGLEWVSGISWNSGSMGYADSVKDRFTISRDNAKSSLYLQMNSLRAEDTALYYCVREKGPGLTGSTADYYGLDVWGQGTMVTVSS
notes: Biparatopic VH-linker-VH
